Reference: paper PMC9482650, “Quantitative fragmentomics allow affinity mapping of interactomes” (Nature Communications, 2022)

What was measured:
Experiment in all cases: holdup assay
Set-up in all cases: key: below the threshold = too weak to quantify, mostly under pKd 3.1 to 4
Conditions in all cases: plain residues with an end cap or a label only (N-terminal biotin on a linker: ado-ado)
Inadl_9, Q8NI35 = target: Inadl_9, Q8NI35
PICK1, Q9NRD5 = target: PICK1, Q9NRD5
DLG4_1, P78352 = target: DLG4_1, P78352
TJP2_1, Q9UDY2 = target: TJP2_1, Q9UDY2
APBA1_1, Q02410 = target: T1, APBA1_1, Q02410
T1 sequence (Q02410 651-752, limits assumed, looked up): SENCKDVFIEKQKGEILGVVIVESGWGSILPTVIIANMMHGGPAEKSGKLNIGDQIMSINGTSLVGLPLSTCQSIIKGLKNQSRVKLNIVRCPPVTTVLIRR

Inadl_2, Q8NI35 = target: Inadl_2, Q8NI35
LIN7A, O14910 = target: T2, LIN7A, O14910
T2 sequence (O14910 103-200, limits assumed, looked up): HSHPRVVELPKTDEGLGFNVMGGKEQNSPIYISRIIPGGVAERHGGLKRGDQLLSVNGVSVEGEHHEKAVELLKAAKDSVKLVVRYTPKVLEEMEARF

NOS1, P29475 = target: NOS1, P29475
DLG3_3, Q92796 = target: T3, DLG3_3, Q92796
T3 sequence (Q92796 374-475, limits assumed, looked up): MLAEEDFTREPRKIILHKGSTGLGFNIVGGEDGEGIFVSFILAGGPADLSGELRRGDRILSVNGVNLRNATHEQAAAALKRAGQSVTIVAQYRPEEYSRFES

GRASP, Q7Z6J2 = target: GRASP, Q7Z6J2
GRID2IP_1, A4D2P6 = target: GRID2IP_1, A4D2P6
GRIP1_7, Q9Y3R0 = target: T4, GRIP1_7, Q9Y3R0
T4 sequence (Q9Y3R0 999-1096, limits assumed, looked up): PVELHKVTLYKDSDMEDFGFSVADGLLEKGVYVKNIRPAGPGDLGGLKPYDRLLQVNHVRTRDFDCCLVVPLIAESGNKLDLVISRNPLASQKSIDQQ

LNX2_2, Q8N448 = target: T5, LNX2_2, Q8N448
T5 sequence (Q8N448 334-432, limits assumed, looked up): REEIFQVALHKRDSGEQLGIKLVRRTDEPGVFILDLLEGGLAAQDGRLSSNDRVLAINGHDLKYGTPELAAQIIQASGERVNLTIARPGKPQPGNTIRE

SNTB1, Q13884 = target: T6, SNTB1, Q13884
T6 sequence (Q13884 107-205, limits assumed, looked up): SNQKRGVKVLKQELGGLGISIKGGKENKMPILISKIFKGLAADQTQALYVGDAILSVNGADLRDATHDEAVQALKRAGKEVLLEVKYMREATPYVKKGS

ARHGAP21, Q5T5U3 = target: T7, ARHGAP21, Q5T5U3
T7 sequence (Q5T5U3 45-169, limits assumed, looked up): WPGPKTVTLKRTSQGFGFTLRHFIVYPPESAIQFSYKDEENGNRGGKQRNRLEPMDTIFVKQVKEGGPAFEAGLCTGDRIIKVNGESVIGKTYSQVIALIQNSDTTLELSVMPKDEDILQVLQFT

MAGI1_1, Q96QZ7 = target: MAGI1_1, Q96QZ7
HTRA4, P83105 = target: T8, HTRA4, P83105
T8 sequence (P83105 378-476, limits assumed, looked up): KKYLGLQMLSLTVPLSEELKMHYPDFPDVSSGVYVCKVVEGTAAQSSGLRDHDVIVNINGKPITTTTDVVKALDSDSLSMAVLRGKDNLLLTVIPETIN

TJP1_3, Q07157 = target: TJP1_3, Q07157
MPP6, Q9NZW5 = target: T9, MPP6, Q9NZW5
T9 sequence (Q9NZW5 125-219, limits assumed, looked up): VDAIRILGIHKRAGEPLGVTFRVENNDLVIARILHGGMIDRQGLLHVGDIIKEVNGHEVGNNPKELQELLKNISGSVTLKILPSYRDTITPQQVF

NHERF2_2, Q15599 = target: NHERF2_2, Q15599
NHERF4_1, Q86UT5-2 = target: NHERF4_1, Q86UT5-2
TJP3_3, O95049 = target: T10, TJP3_3, O95049
T10 sequence (O95049 375-456, limits assumed, looked up): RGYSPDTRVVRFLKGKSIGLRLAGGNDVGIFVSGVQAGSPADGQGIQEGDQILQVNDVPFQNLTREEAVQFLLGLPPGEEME

NHERF4_4, Q86UT5 = target: NHERF4_4, Q86UT5
RAPGEF6, Q8TEU7 = target: T11, RAPGEF6, Q8TEU7
T11 sequence (Q8TEU7 525-625, limits assumed, looked up): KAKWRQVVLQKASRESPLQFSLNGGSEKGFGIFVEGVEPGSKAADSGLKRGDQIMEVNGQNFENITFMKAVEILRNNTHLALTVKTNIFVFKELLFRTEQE

APBA1_2, Q02410 = target: T12, APBA1_2, Q02410
T12 sequence (Q02410 742-832, limits assumed, looked up): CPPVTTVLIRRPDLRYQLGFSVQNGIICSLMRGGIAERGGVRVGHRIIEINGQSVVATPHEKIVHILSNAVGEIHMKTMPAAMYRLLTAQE

Sequence of TJP1_3, Q07157 (Q07157 416-512): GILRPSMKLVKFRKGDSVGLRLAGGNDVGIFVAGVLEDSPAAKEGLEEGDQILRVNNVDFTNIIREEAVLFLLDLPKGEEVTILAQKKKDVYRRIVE
Sequence of PICK1, Q9NRD5 (Q9NRD5 17-115): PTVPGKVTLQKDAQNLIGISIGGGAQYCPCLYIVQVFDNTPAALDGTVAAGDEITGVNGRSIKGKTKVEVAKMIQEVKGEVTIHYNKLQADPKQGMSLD
Sequence of GRASP, Q7Z6J2 (Q7Z6J2 96-193): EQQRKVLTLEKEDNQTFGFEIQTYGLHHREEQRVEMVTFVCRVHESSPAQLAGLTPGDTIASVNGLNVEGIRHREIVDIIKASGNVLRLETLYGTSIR
Sequence of TJP2_1, Q9UDY2 (Q9UDY2 24-128): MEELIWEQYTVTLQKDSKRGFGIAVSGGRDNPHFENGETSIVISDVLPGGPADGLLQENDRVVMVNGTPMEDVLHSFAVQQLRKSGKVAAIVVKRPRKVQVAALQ
Sequence of Inadl_9, Q8NI35 (Q8NI35 1530-1615): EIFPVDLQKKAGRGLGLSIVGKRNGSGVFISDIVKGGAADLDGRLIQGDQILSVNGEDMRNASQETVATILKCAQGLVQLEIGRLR
Sequence of MAGI1_1, Q96QZ7 (Q96QZ7 1-106): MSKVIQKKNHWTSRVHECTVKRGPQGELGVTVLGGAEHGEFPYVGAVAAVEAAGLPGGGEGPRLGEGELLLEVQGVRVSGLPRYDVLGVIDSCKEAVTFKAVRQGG
Sequence of Inadl_2, Q8NI35 (Q8NI35 238-335): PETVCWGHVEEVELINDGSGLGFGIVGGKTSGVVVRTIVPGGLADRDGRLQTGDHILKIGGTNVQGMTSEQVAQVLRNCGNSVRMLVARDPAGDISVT
Sequence of NHERF4_4, Q86UT5 (Q86UT5 464-550): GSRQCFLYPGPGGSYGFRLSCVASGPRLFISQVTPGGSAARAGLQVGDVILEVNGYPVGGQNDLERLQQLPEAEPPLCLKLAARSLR
Sequence of NHERF2_2, Q15599 (Q15599 142-238): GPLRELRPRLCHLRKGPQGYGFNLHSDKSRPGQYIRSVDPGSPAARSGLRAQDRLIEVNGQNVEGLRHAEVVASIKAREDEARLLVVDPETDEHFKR
Sequence of DLG4_1, P78352 (P78352 62-152): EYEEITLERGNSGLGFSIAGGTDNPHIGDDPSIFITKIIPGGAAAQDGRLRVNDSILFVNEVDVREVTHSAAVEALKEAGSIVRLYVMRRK
Sequence of GRID2IP_1, A4D2P6 (A4D2P6 1-87): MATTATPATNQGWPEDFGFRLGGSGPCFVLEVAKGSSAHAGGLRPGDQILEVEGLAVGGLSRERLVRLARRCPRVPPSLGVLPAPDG
Sequence of NHERF4_1, Q86UT5-2 (Q86UT5 other isoform, or with tags, fused parts or gaps): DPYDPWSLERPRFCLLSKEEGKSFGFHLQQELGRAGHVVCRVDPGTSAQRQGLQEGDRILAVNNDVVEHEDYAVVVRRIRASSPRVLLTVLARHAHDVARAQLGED
Sequence of NOS1, P29475 (P29475 9-101): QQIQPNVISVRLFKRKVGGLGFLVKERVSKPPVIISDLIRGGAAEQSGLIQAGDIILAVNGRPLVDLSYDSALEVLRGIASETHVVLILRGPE

Binder | pKd (Inadl_9, Q8NI35) | pKd (PICK1, Q9NRD5) | pKd (DLG4_1, P78352) | pKd (TJP2_1, Q9UDY2) | pKd (APBA1_1, Q02410) | pKd (Inadl_2, Q8NI35) | pKd (LIN7A, O14910) | pKd (NOS1, P29475) | pKd (DLG3_3, Q92796) | pKd (GRASP, Q7Z6J2) | pKd (GRID2IP_1, A4D2P6) | pKd (GRIP1_7, Q9Y3R0) | pKd (LNX2_2, Q8N448) | pKd (SNTB1, Q13884) | pKd (ARHGAP21, Q5T5U3) | pKd (MAGI1_1, Q96QZ7) | pKd (HTRA4, P83105) | pKd (TJP1_3, Q07157) | pKd (MPP6, Q9NZW5) | pKd (NHERF2_2, Q15599) | also measured
AEDEEIQTKM [UNC93A, Q86WB7] | below the threshold | 4.11 | below the threshold | below the threshold | below the threshold | below the threshold | below the threshold | below the threshold | below the threshold | below the threshold | below the threshold | below the threshold | below the threshold | below the threshold | 3.9 | below the threshold | 3.8 | below the threshold | below the threshold | 4.81 | pKd (NHERF4_1, Q86UT5-2): below the threshold; pKd (TJP3_3, O95049): below the threshold; pKd (NHERF4_4, Q86UT5): below the threshold; pKd (RAPGEF6, Q8TEU7): below the threshold; pKd (APBA1_2, Q02410): below the threshold
SVISRREWYV [NECTIN3, Q9NQS3] | 4.51 | below the threshold | below the threshold | 4.63 | below the threshold | 4.91 | 3.58 | 4.04 | 3.71 | below the threshold | below the threshold | 5.11 | 5.15 | below the threshold | 4.29 | below the threshold | 3.86 | 3.67 | 4.48 | below the threshold | pKd (NHERF4_1, Q86UT5-2): 3.49; pKd (TJP3_3, O95049): 4.39; pKd (NHERF4_4, Q86UT5): 4.07; pKd (RAPGEF6, Q8TEU7): below the threshold; pKd (APBA1_2, Q02410): 3.85
LDKESFLTWL [YAP1, P46937] | 3.99 | below the threshold | below the threshold | 5.19 | 4.06 | 3.91 | below the threshold | 4.03 | below the threshold | 5.31 | below the threshold | below the threshold | 4.38 | below the threshold | 4.89 | 3.65 | 4.65 | below the threshold | below the threshold | 5.19 | pKd (NHERF4_1, Q86UT5-2): 4.15; pKd (TJP3_3, O95049): 4.18; pKd (NHERF4_4, Q86UT5): 4.16; pKd (RAPGEF6, Q8TEU7): below the threshold; pKd (APBA1_2, Q02410): 4.88
QNRIITKTDV [SMCHD1, A6NHR9] | 3.55 | below the threshold | 3.82 | 3.61 | below the threshold | below the threshold | below the threshold | below the threshold | below the threshold | 3.92 | below the threshold | below the threshold | below the threshold | 3.64 | 4.04 | below the threshold | below the threshold | below the threshold | below the threshold | below the threshold | pKd (NHERF4_1, Q86UT5-2): below the threshold; pKd (TJP3_3, O95049): below the threshold; pKd (NHERF4_4, Q86UT5): below the threshold; pKd (RAPGEF6, Q8TEU7): below the threshold; pKd (APBA1_2, Q02410): 3.9
VRPGVKESLV [SCN4A, P35499] | 3.71 | below the threshold | 4.98 | below the threshold | below the threshold | below the threshold | 3.94 | 3.97 | 4.1 | below the threshold | below the threshold | below the threshold | 3.91 | 5.05 | below the threshold | below the threshold | below the threshold | below the threshold | 3.67 | below the threshold | pKd (NHERF4_1, Q86UT5-2): 3.76; pKd (TJP3_3, O95049): below the threshold; pKd (NHERF4_4, Q86UT5): 3.96; pKd (RAPGEF6, Q8TEU7): below the threshold; pKd (APBA1_2, Q02410): below the threshold
NRVDSKETEC [ADAM17, P78536] | below the threshold | 4.08 | 4.32 | below the threshold | below the threshold | below the threshold | below the threshold | below the threshold | 3.95 | below the threshold | below the threshold | below the threshold | 3.5 | 4.87 | below the threshold | 3.53 | below the threshold | below the threshold | below the threshold | below the threshold | pKd (NHERF4_1, Q86UT5-2): 3.68; pKd (TJP3_3, O95049): below the threshold; pKd (NHERF4_4, Q86UT5): below the threshold; pKd (RAPGEF6, Q8TEU7): below the threshold; pKd (APBA1_2, Q02410): below the threshold
